In publication PMC4321536, “Chloroplast-encoded serotonin N-acetyltransferase in the red alga Pyropia yezoensis: gene transition to the nucleus from chloroplasts” (Journal of Experimental Botany, 2014):

Substrate: NCCc1c[nH]c2ccc(O)cc12
Test: HPLC-fluorescence detection of N-acetylserotonin; Lineweaver-Burk plot
Format: biochemical, Pyropia yezoensis
Settings: acetyl-CoA co-substrate (0.5 mM in standard assay), 100 mM potassium phosphate pH 8.8, 55 °C

B1: PySNAT (Pyropia yezoensis; I2V) (protein)
chain: MVFWKNFFQNSNINASSEKNFKKLIVLDKTCDKIEFKDIYLSSNKNINLYELEQLCDSVGWVKRPLKKVKIALKNSSIIISLIQKKDANSKLVGFARATSDNGFNATIWDVVIHPDFQGLGLGKVVIHQLIQQLRQAEISTITLFAEPDVVSFYKKLGFIKDPDGVKGMFWYPR
notes: full-length chloroplast-encoded protein, 174 aa, calculated 20099 Da, C-terminal His tag kept (pET28b NcoI/XhoI), E. coli BL21(DE3), Ni-NTA; no transit peptide; I2V read from the printed NcoI forward primer (ATG GTC for native ATG ATC)
B1 was tested. Which Km did it give?
Its Km is 467 µM.
